Results reported in US20230071371A1 (Scripps Research, published 2023).
Where two headings read alike, the source gives them in different places. Bridges are numbered along the chain shown (N, C = ends). Where no end group is shown, it is not given here. [ ]: non-standard residue; d: D form. NMeR = CN[C@@H](CCCNC(=N)N)C(=O)O; hArg = N=C(N)NCCCC[C@H](N)C(=O)O; β3hR = N=C(N)NCCC[C@H](N)CC(=O)O; Nle = CCCC[C@H](N)C(=O)O; L1 = not defined here; L3 = not defined here; L4 = not defined here; L5 = not defined here

T1: GPR10 (UniProt P49683 1-370, limits assumed)
T1 sequence (looked up): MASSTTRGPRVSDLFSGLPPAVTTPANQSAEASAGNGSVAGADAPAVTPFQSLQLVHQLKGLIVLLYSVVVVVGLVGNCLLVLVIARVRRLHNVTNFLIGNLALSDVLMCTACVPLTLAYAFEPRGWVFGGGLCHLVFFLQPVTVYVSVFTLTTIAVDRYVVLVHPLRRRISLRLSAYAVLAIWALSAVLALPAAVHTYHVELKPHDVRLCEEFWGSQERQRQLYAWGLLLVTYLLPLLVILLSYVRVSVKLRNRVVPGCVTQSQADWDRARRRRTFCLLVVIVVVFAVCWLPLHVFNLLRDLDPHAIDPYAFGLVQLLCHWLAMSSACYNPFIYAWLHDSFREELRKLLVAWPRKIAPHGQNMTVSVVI


Legend:
GPR10 [1] = biological target: T1, GPR10; assay: cell-based or functional assay
GPR10 [2] = biological target: T1, GPR10; assay: cell-based or functional assay; remark: listed apart in the source

| Binder | GPR10 EC50 (GPR10 [1]) [µM] | GPR10 EC50 (GPR10 [2]) [µM] |
| --- | --- | --- |
| SRAHQCS[Nle]ETRTCDINPAWYTG[NMeR]GIRPVGRF-NH2 (linker 6-13 via L3; reading uncertain) [Conjugate 257] | 0.0088 |  |
| SRAHQHSMCTRTPDICPAWYTGRGIRPVGRF-NH2 (cysteine pairing not given here) [SEQ ID NO 91] |  | 0.041 |
| SRAHQHSMCTRTPDICPAWYTGRGIRPVGRF-NH2 (linker 9-16 via L1; reading uncertain) [Conjugate 227] |  | 0.085 |
| SRAHQCS[Nle]ETRTCDINPAWYTG[NMeR]GIRPVGRF-NH2 (linker 6-13 via L1; reading uncertain) [Conjugate 253] | 0.034 |  |
| SRAHQCS[Nle]ETRTCDINPAWYTG[β3hR]GIRPVGRF-NH2 (linker 6-13 via L3; reading uncertain) [Conjugate 256] | 0.0051 |  |
| SRAHQHSMETRTPDINPCWYTGRGCRPVGRF-NH2 (cysteine pairing not given here) [SEQ ID NO 95] |  | 0.033 |
| SRAHQHSMETRTPDICPAWYTGCGIRPVGRF-NH2 (linker 16-23 via L3; reading uncertain) [Conjugate 245] |  | 0.023 |
| SRAHQHSMETRTPDCNPAWYTCRGIRPVGRF-NH2 (cysteine pairing not given here) [SEQ ID NO 93] |  | 0.017 |
| SRAHQHSMETRTPDCNPAWYTCRGIRPVGRF-NH2 (linker 15-22 via L5; reading uncertain) [Conjugate 244] |  | 0.23 |
| SRAHQHSMETRTPDICPAWYTGCGIRPVGRF-NH2 (linker 16-23 via L1; reading uncertain) [Conjugate 230] |  | 0.029 |
| SRAHQCS[Nle]ETRTCDINPAWYTG[β3hR]GIRPVGRF-NH2 (linker 6-13 via L5; reading uncertain) [Conjugate 264] | 0.081 |  |
| SRAHQCS[Nle]ETRTCDINPAWYTG[NMeR]GIRPVGRF-NH2 (cysteine pairing not given here) [SEQ ID NO 99] | 0.044 |  |
| SRAHQHSMETRTCDINPAWCTGRGIRPVGRF-NH2 (cysteine pairing not given here) [SEQ ID NO 92] |  | 0.018 |
| SRAHQHSMETRTPDINPCWYTGRGCRPVGRF-NH2 (linker 18-25 via L4; reading uncertain) [Conjugate 249] |  | > 1 |
| SRAHQHSMETRTCDINPAWCTGRGIRPVGRF-NH2 (linker 13-20 via L1; reading uncertain) [Conjugate 228] |  | 0.04 |
| SRAHQHSMETRTCDINPAWCTGRGIRPVGRF-NH2 (linker 13-20 via L5; reading uncertain) [Conjugate 241] |  | 1.5 |
| SRAHQCS[Nle]ETRTCDINPAWYTGRGIRPVG[β3hR]F-NH2 (cysteine pairing not given here) [SEQ ID NO 101] | > 0.2 |  |
| SRAHQCS[Nle]ETRTCDINPAWYTG[β3hR]GIRPVGRF-NH2 (linker 6-13 via L1; reading uncertain) [Conjugate 252] | 0.016 |  |
| SRAHQHSMETRTCDINPAWCTGRGIRPVGRF-NH2 (linker 13-20 via L3; reading uncertain) [Conjugate 239] |  | 0.017 |
| SRAHQHSMETRTPDINPCWYTGRGCRPVGRF-NH2 (linker 18-25 via L1; reading uncertain) [Conjugate 231] |  | 0.018 |

| Binder | GPR10 EC50 (GPR10 [1]) [µM] | GPR10 EC50 (GPR10 [2]) [µM] |
| --- | --- | --- |
| SRAHQCS[Nle]ETRTCDINPAWYTGRGIRPVG[hArg]F-NH2 (cysteine pairing not given here) [SEQ ID NO 100] | > 0.2 |  |
| SRAHQCS[Nle]ETRTCDINPAWYTG[hArg]GIRPVGRF-NH2 (cysteine pairing not given here) [SEQ ID NO 97] | 0.017 |  |
| SRAHQHSMETRTPDINPAWCTGRGIRCVGRF-NH2 (linker 20-27 via L1; reading uncertain) [Conjugate 232] |  | 0.13 |
| SRAHQHSMETRTPDICPAWYTGCGIRPVGRF-NH2 (linker 16-23 via L5; reading uncertain) [Conjugate 247] |  | 2.8 |
| SRAHQHSMETRTPDCNPAWYTCRGIRPVGRF-NH2 (linker 15-22 via L3; reading uncertain) [Conjugate 242] |  | 0.0061 |
| SRAHQHSMETRTPDINPCWYTGRGCRPVGRF-NH2 (linker 18-25 via L5; reading uncertain) [Conjugate 250] |  | > 1 |
| SRAHQHSMETRTPDCNPAWYTCRGIRPVGRF-NH2 (linker 15-22 via L1; reading uncertain) [Conjugate 229] |  | 0.01 |
| CRAHQHSCETRTPDINPAWYTGRGIRPVGRF-NH2 (linker 1-8 via L5; reading uncertain) [Conjugate 235] |  | 0.33 |
| SRAHQHSMETRTPDINPAWCTGRGIRCVGRF-NH2 (cysteine pairing not given here) [SEQ ID NO 96] |  | 0.92 |
| SRAHQHSMETRTCDINPAWCTGRGIRPVGRF-NH2 (linker 13-20 via L4; reading uncertain) [Conjugate 240] |  | 0.63 |
| CRAHQHSCETRTPDINPAWYTGRGIRPVGRF-NH2 (linker 1-8 via L4; reading uncertain) [Conjugate 234] |  | 0.23 |
| SRAHQCS[Nle]ETRTCDINPAWYTG[β3hR]GIRPVGRF-NH2 (cysteine pairing not given here) [SEQ ID NO 98] | 0.013 |  |
| SRAHQHSMETRTPDICPAWYTGCGIRPVGRF-NH2 (linker 16-23 via L4; reading uncertain) [Conjugate 246] |  | 0.36 |
| SRAHQCS[Nle]ETRTCDINPAWYTG[NMeR]GIRPVGRF-NH2 (linker 6-13 via L4; reading uncertain) [Conjugate 261] | 0.12 |  |
| CRAHQHSCETRTPDINPAWYTGRGIRPVGRF-NH2 (linker 1-8 via L3; reading uncertain) [Conjugate 233] |  | 0.017 |
| SRAHQCS[Nle]ETRTCDINPAWYTG[NMeR]GIRPVGRF-NH2 (linker 6-13 via L5; reading uncertain) [Conjugate 265] | 0.16 |  |
| SRAHQHSMETRTPDCNPAWYTCRGIRPVGRF-NH2 (linker 15-22 via L4; reading uncertain) [Conjugate 243] |  | 0.08 |
| SRAHQHSMETRTPDINPCWYTGRGCRPVGRF-NH2 (linker 18-25 via L3; reading uncertain) [Conjugate 248] |  | 0.0075 |
| SRAHQCS[Nle]ETRTCDINPAWYTG[β3hR]GIRPVGRF-NH2 (linker 6-13 via L4; reading uncertain) [Conjugate 260] | 0.06 |  |
| SRAHQHSMETRTPDICPAWYTGCGIRPVGRF-NH2 (cysteine pairing not given here) [SEQ ID NO 94] |  | 0.07 |
